Data from patent US20220402979A1.
pKd: −log10 of the molar value.

How the values were obtained:
[1] = target: recombinant human mis-disordered tau protein (tau151-391/4R) (human) (UniProt P10636); assay: reference line in the plot 'Affinity against pathological tau', axis KD (nM); SPR (Example 10)
Human Tau2N4R = assay: SPR; literature table, Jadhav et al. 2019; AFFINITY 'nd.'
Chain of Human Tau2N4R (single chain, as listed by the source limits assumed): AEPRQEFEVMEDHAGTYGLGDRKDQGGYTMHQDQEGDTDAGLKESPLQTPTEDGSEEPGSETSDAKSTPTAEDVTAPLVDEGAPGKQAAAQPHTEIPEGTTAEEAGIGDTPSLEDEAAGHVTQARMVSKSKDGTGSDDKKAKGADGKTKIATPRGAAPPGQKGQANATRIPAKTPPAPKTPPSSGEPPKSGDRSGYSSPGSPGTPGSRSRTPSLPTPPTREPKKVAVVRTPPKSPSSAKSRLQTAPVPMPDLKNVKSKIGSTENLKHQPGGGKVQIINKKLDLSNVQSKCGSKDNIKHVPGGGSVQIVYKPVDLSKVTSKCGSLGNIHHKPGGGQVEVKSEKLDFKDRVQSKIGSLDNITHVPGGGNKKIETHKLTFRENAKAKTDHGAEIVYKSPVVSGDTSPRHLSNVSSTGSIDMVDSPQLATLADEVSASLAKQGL

Chain of recombinant human mis-disordered tau protein (tau151-391/4R) (human) (P10636 468-708): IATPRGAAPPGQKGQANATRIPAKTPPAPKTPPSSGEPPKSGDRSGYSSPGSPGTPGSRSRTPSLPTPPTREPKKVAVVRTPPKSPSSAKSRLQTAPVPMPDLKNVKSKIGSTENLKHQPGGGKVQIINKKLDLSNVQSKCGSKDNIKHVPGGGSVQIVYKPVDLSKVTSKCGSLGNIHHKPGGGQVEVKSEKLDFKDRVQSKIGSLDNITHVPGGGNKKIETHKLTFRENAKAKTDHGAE

Substance	pKd [1]	AVIDITY (Human Tau2N4R) [pM]
AADvac2	9.40	
HJ8.5 (antibody)		0.4
HJ9.3 (antibody)		100
HJ9.4 (antibody)		7000
